Molecular target: rat α1B+β1b calcium channel (N-type calcium channel α1B subunit coexpressed with β1b subunit) (rat) (UniProt Q02294)
Assay: cell-based or functional assay

Sequence of rat α1B+β1b calcium channel (N-type calcium channel α1B subunit coexpressed with β1b subunit) (rat) (Q02294 whole entry, chain 1 of 2): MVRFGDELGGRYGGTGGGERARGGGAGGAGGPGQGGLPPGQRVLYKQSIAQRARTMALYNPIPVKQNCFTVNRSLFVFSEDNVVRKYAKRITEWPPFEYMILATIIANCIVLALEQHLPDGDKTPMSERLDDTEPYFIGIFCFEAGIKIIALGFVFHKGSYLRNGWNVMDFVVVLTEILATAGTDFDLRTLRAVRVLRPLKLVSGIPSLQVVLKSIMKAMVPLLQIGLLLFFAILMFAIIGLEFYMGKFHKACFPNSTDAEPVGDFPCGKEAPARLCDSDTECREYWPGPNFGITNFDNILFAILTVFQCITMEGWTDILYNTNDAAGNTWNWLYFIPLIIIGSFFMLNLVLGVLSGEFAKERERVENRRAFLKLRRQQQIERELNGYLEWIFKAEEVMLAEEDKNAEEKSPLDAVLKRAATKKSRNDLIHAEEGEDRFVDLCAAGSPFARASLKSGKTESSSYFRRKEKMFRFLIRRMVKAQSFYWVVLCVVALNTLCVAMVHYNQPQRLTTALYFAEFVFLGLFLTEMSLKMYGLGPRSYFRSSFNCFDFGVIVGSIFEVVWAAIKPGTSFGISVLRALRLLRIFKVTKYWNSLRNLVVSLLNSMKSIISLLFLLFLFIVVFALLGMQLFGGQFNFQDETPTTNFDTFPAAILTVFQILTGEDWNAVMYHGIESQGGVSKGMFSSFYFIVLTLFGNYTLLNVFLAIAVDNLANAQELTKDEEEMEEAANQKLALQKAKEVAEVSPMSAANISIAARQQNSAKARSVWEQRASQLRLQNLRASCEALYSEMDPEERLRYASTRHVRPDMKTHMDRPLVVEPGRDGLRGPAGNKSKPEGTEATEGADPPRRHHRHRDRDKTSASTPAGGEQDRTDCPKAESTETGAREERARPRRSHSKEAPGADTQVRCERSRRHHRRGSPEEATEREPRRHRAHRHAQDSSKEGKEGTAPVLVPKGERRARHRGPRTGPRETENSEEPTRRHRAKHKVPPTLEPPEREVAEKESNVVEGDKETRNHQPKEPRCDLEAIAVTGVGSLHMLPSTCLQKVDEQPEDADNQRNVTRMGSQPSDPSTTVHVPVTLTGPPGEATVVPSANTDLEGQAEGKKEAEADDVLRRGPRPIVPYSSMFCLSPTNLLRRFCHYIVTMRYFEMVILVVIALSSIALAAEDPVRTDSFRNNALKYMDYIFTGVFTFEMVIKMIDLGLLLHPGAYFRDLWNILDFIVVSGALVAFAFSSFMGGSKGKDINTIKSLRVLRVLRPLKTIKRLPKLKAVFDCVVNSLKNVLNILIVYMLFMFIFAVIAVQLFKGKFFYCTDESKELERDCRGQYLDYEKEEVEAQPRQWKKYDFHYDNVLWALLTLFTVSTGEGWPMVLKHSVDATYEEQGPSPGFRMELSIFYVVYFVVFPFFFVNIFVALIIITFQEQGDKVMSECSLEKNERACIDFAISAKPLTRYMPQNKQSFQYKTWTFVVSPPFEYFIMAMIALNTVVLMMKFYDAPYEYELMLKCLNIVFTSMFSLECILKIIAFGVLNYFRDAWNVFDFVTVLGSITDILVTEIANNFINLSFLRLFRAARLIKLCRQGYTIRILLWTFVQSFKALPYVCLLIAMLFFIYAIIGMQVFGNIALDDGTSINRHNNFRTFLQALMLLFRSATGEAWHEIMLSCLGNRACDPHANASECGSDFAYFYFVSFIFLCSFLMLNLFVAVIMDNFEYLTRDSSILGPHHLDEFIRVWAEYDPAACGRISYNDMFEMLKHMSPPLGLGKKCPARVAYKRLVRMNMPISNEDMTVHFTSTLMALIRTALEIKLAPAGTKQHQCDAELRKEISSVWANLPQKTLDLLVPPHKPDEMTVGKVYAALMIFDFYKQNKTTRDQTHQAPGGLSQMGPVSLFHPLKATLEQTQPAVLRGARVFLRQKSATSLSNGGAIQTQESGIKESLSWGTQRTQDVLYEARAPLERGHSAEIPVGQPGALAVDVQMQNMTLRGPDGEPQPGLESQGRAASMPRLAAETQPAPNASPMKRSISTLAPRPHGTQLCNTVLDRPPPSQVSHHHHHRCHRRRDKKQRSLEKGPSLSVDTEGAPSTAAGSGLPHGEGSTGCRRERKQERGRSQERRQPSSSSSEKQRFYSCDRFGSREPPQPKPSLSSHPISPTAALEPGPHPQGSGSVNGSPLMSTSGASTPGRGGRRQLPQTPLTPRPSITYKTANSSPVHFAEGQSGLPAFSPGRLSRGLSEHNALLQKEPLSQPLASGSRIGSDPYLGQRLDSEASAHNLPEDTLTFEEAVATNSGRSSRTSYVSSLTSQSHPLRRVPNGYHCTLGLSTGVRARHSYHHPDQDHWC
Sequence of rat α1B+β1b calcium channel (N-type calcium channel α1B subunit coexpressed with β1b subunit) (rat) (P54283 whole entry, chain 2 of 2, further chain): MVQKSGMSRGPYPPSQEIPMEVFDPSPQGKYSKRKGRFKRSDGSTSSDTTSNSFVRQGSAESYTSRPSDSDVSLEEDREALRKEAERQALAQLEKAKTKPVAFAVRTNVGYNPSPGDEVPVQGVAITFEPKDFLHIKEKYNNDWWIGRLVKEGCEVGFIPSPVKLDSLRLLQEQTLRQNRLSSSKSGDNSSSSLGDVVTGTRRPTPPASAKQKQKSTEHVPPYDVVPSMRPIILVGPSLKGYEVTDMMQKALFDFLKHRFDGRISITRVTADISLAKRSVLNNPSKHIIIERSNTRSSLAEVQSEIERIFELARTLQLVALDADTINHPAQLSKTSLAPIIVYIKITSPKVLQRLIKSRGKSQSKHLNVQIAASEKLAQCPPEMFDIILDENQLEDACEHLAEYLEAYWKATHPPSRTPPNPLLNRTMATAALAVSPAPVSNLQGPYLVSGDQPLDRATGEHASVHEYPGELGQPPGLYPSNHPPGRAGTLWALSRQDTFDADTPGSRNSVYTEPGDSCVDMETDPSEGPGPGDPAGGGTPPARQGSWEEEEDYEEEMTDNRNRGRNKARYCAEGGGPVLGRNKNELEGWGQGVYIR

For “rat brain α2δ-2 calcium channel subunit (from UniProt Q8CFG6 19-1157)”, the average current density (Ipeak/cell capacitance), whole-cell patch clamp, fold increase on coexpression was 4 fold.
